Assay results from the supplement of paper PMC10567573.
± gives the standard deviation.

Experiment: protein stability index of a GFP-peptide fusion (GPS, HEK-293T) (PSI 1-6); higher = more stable
[1] = treatment: DMSO, c terminus: a fixed tail appended
[2] = treatment: MLN4924 1 uM, 8 h, c terminus: a fixed tail appended
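Also: 24-mer peptide tiles fused after GFP, lentivirally expressed, FACS-sorted into six equal bins by GFP/DsRed ratio, decoded by Illumina sequencing, PSI is the read-weighted mean bin number.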

Row | Sequence | protein stability index [1] | protein stability index [2] | protein stability index (treatment: DMSO, c terminus: native) | protein stability index (treatment: MLN4924 1 uM, 8 h, c terminus: native)
1 | LLAAREDLSKIIRTSSGTSREKTA [FAM98B] | 4.05 ± 0.15 | 4.23 ± 0.24 |  | 
2 | GSLPWQGLKADTLKERYQKIGDTK [CSNK1G1] | 4.05 ± 0.083 | 4.19 ± 0.29 |  | 
3 | KPHRCHNCGKSFSRLTALTLHQRT [ZNF449] | 2.46 ± 0.096 | 2.78 ± 0.76 |  | 
4 | LCDKLPPATALGTASYPSDGCGAD [NOL4L] | 4.98 ± 0.19 | 4.92 ± 0.23 |  | 
5 | AALPLAAEETANLPPSPPPSPASE [MAP2] | 5.27 ± 0.13 | 5.09 ± 0.18 |  | 
6 | EVCYEDLGCFSDTEPWGGTAIRPL [PNLIPRP1] | 3.18 ± 0.19 | 3.54 ± 0.66 |  | 
7 | GDIIRLEHKETSRNLHSHYHEAPM [POMT2] | 3.35 ± 0.13 | 3.57 ± 0.12 |  | 
8 | IEKFIREPSLKATMGLAGRARVKE [ALG2] | 3.6 ± 0.18 | 3.62 ± 0.33 |  | 
9 | PQDGSYPRQADHDDHECCERVVIN [KCNA1] | 5.22 ± 0.41 | 5.18 ± 0.34 |  | 
10 | KILRSMSRKVTTNKLLLSIIILLE [VTI1B] | 2.48 ± 0.53 | 2.32 ± 0.42 |  | 
11 | DPSKLDSGKELKIDIIPNPQERTL [HSP90AB1] | 5.15 ± 0.11 | 5.31 ± 0.078 |  | 
12 | ENRVSTLRVSPDGTAFCSGSWDHT [GNB5] | 3.95 ± 0.14 | 3.9 ± 0.19 |  | 
13 | EVIISWSEKASKKYVSKELAKEIR [EIF5] | 2.34 ± 0.15 | 2.57 ± 0.26 |  | 
14 | SGRHPSHSTTPSGPGDEVARGIAG [ARFIP2] | 4.81 ± 0.13 | 4.62 ± 0.22 |  | 
15 | RMPLLTPRYITDVIDAEPFIRCSL [KLHL12] | 2.27 ± 0.28 | 1.84 ± 0.52 |  | 
16 | ELQLEQSRAANQEQRANDLEQIME [CEP70] | 5.1 ± 0.15 | 5.16 ± 0.092 |  | 
17 | NTELQDVQRIMVANIEEVLQRGEA [SEC22B] | 4.7 ± 0.36 | 4.71 ± 0.25 |  | 
18 | YGSIHGPTDYQVNIQIIEYEKKQT [BTBD1] | 2.96 ± 0.48 | 3.28 ± 0.33 |  | 
19 | FIFTFVKKKKIGFYFEVCGMMVES [PCDHGA10] | 3.34 ± 0.57 |  |  | 
20 | ISQQDPESDSQGQGNGLFYSSGPQ [ZC2HC1C] | 4.83 ± 0.48 | 5.08 ± 0.19 |  | 
21 | AVQLRHAWNPEDRSLNVFVKDDDR [SPSB4] | 4.21 ± 0.25 | 4.24 ± 0.26 |  | 
22 | EEITEESLEESVGKPLYLIFRNLC [INTS3] | 2.79 ± 0.58 | 2.88 ± 0.38 |  | 
23 | LNECVGTAYWALAGSIGGLFFAVG [SLC22A15] | 3.19 ± 1.4 | 3.72 ± 0.21 |  | 

Row | Sequence | protein stability index [1] | protein stability index [2] | protein stability index (treatment: DMSO, c terminus: native) | protein stability index (treatment: MLN4924 1 uM, 8 h, c terminus: native)
24 | ALVFGVNTFIALALQTLLTLIVVD [SLC19A2] | 3.33 ± 0.55 | 3.37 ± 0.58 |  | 
25 | DDDKGDSKETRLTLMEEVLLLGLK [GOLPH3] | 3.16 ± 0.36 | 3.65 ± 0.32 |  | 
26 | NGEYTLMPSPTDVVLPGAVSLRYS [ADAMTS4] | 3.23 ± 0.34 | 3.28 ± 0.41 |  | 
27 | FYQLVWSALPFITYLENKGHRYPC [POP5] | 2.88 ± 0.69 | 3.09 ± 0.53 |  | 
28 | APRGKNGFTPLHMAVDKDTTNVGR [FEM1A] | 4.37 ± 0.19 | 4.44 ± 0.18 |  | 
29 | RFVQDLVRALEQEKLQGVECGLR [DAPK3] |  |  | 2.92 ± 1.3 | 2.14 ± 0.067
30 | SGTVAAVLTLPFDVVKTQRQVALG [SLC25A39] | 2.15 ± 0.32 | 2.27 ± 0.3 |  | 
31 | KMAAFHGAGLKRYLLTVMAAAAKA [ADAMTS4] | 2.43 ± 0.21 | 2.58 ± 0.5 |  | 
32 | DYRQEQPETFWIQRAPQLPTWWPL [SPAG8] | 2.48 ± 0.15 | 2.57 ± 0.19 |  | 
33 | LFQSPLFAKAGDTLSGTCLLIANK [CARM1] | 2.56 ± 0.76 | 2.81 ± 0.47 |  | 
34 | DPRYELPSRKYISTKAIPEKYGAV [ZBED1] | 3.55 ± 0.18 | 3.55 ± 0.19 |  | 
35 | KRLREEEAARLFKQIVSAVAHCHQ [TRIB1] | 2.4 ± 0.36 | 2.4 ± 2 |  | 
36 | YVERKNSLKKGSLVKNLKDTLGLG [NCK2] | 2.85 ± 0.34 | 3.13 ± 0.28 |  | 
37 | MSLKCLAARAVRANDINYQDQIPR [FEM1B] | 3.49 ± 0.34 | 3.52 ± 0.17 |  | 
38 | GDFWRMIWEQRSATVVMMTKLEER [PTPRD] | 2.77 ± 0.38 | 2.36 ± 0.18 |  | 
39 | KIRRGQFCIPEHISPKARCLIRSL [TRIB1] | 2.29 ± 0.48 | 2.29 ± 0.4 |  | 
40 | TGTSKRYQLCRVQECPPDGRSFRE [ADAMTSL2] | 2.58 ± 0.71 | 3.09 ± 0.62 |  | 
41 | FLLLYLFTLGTNAIIISTIVLDRA [OR10K2] | 3.39 ± 0.28 | 3.23 ± 0.53 |  | 
42 | QIKTLLALSCHEQEMVVSSLVIGA [SLC2A12] | 3.78 ± 0.47 | 3.1 ± 0.55 |  | 
43 | DSVKVALLETNPYLLALTIIVSIV [CLPTM1] | 2.08 ± 0.28 | 2.3 ± 0.14 |  | 
44 | VRRGLAGATTLGDMIYVSGGFDGS [KLHL12] | 2.94 ± 0.56 | 2.87 ± 0.15 |  | 
45 | QLDREAQARHQLVLTAVDGGTPAR [PCDHGC5] | 4.59 ± 0.1 | 4.76 ± 0.18 |  | 
46 | FVLNRLQYAIISEAWRLVEEGIVS [CRYL1] | 3.17 ± 0.66 | 3.09 ± 0.24 |  | 

Row | Sequence | protein stability index [1] | protein stability index [2] | protein stability index (treatment: DMSO, c terminus: native) | protein stability index (treatment: MLN4924 1 uM, 8 h, c terminus: native)
47 | FQMEKIEHGYENMNHFTVNLNREE [TRIM55] | 3.21 ± 0.47 | 3.57 ± 0.59 |  | 
48 | VDGDQSKILISGLEPSTPYRFLLY [TNXB] | 2.41 ± 0.45 | 2.21 ± 0.48 |  | 
49 | EDLELKKKIFAQLDSIIDDRVILS [CRYL1] | 3.28 ± 0.26 | 3.01 ± 0.36 |  | 
50 | QPLSPASSSYSVSSPRSVDSYSST [ATF6] | 4.38 ± 0.22 | 4.59 ± 0.28 |  | 
51 | NLFVPLNTNPKEVQEMRNKIREQN [ADD1] | 4.29 ± 0.18 | 4.18 ± 0.24 |  | 
52 | LPPSMERGYPPPRDSYSSSSRGAP [RBMX] | 4.5 ± 0.17 | 4.53 ± 0.2 |  | 
53 | QACARNILVQTPESESPQSHRAAG [TRIM9] | 4.46 ± 0.16 | 4.5 ± 0.27 |  | 
54 | KAFGVGVAYRSLGRFEQLGKTAAS [FSD1] | 2.77 ± 0.3 | 2.69 ± 0.24 |  | 
55 | TFDTGCLTLSQYILLDPILMFFIM [POMT2] | 2.35 ± 0.52 | 2.33 ± 0.36 |  | 
56 | QEKEELRELNDRLAVYIDKVRSLE [LMNB1] | 3.72 ± 0.31 | 3.9 ± 0.2 |  | 
57 | EAVESTLQTPLDIRLKESINCQLS [TRIM14] | 4.38 ± 0.44 | 4.34 ± 0.36 |  | 
58 | MAGRLMIRKLVAEKLNIPWNHIRL [AASDHPPT] | 2.4 ± 0.94 | 2.12 ± 0.34 |  | 
59 | KDMSESQDEVPDEVENQFILRLPL [TAF7L] | 4.41 ± 0.26 | 4.85 ± 0.15 |  | 
60 | MDIGQPKDFLTGMCLFLQSLRQKQ [GMPPB] | 2.46 ± 0.11 | 2.72 ± 0.39 |  | 
61 | YSGTFALIGAAAFLGGVVRMTISL [CLCN6] | 3.78 ± 0.31 | 2.86 ± 0.15 |  | 
62 | ASKTVFFFFSSPGNNNGTSIEDGQ [BTBD1] | 2.55 ± 1.3 | 2.29 ± 0.74 |  | 
63 | GGGREPQGLAEKSPLQTIGEEQTQ [WDR41] | 5.31 ± 0.26 | 5.58 ± 0.17 |  | 
64 | QRSPLGGDVLHAHLDIWKSAAWMK [SPDEF] | 2.61 ± 0.37 | 2.58 ± 0.45 |  | 
65 | QIRTVIQYQTVRYDILPLSPVSRN [CTDNEP1] | 2.36 ± 0.2 | 2.26 ± 0.13 |  | 
66 | SRSNGSSPEARDARSPSGPSGSLE [TRIM29] | 5.16 ± 0.17 | 5.29 ± 0.3 |  | 
67 | PTVHVEVHQRGSSTAKKEDINLSV [TRIP13] | 4.83 ± 0.2 | 4.84 ± 0.29 |  | 
68 | KPDKAVSIIECDMNVDFDAPLGYK [UFD1] | 3.94 ± 0.34 | 4.21 ± 0.2 |  | 
69 | GQGGKLWDPSVQSCKEGLSPRGPA [ZNF263] | 3.9 ± 0.12 | 4.08 ± 0.16 |  | 

Row | Sequence | protein stability index [1] | protein stability index [2] | protein stability index (treatment: DMSO, c terminus: native) | protein stability index (treatment: MLN4924 1 uM, 8 h, c terminus: native)
70 | TQNHAASALPTGSPKRGTAPGDLS [FBF1] | 5.08 ± 0.18 | 5.13 ± 0.21 |  | 
71 | LLLLLFWGVVSHSFPATLETQEQD [MMP1] | 2.97 ± 0.58 | 2.76 ± 0.82 |  | 
72 | RQVWLLFEYPESSGPARVIAIVSV [KCNA1] | 3.25 ± 0.45 | 2.64 ± 0.48 |  | 
73 | KKAYDYFQAKKIPIVSSLADPLDT [PDZK1] | 3.64 ± 0.23 | 3.88 ± 0.35 |  | 
74 | RMTSAAHYYPKLMSIMGNVLRFLP [GFOD1] | 2.32 ± 0.39 | 2.15 ± 0.36 |  | 
75 | MAQSRDGGNPFAEPSELDNPFQDP [SCAMP3] | 5.19 ± 0.17 | 5.19 ± 0.23 |  | 
76 | QKKQKLEQKAAGSASAKRVWNMTA [FATE1] | 4.01 ± 0.15 | 3.93 ± 0.37 |  | 
77 | PVKELAALPKATILDLSCNKLTTL [LRRC59] | 3.26 ± 0.1 | 3.43 ± 0.35 |  | 
78 | ENERVRGLETGDWGGAPKEGSIWR [ZSWIM9] | 4.29 ± 0.32 | 4.16 ± 0.28 |  | 
79 | HGEEQRITIEPGTSYRLQGLKPNS [PTPRD] | 4.4 ± 0.18 | 4.67 ± 0.29 |  | 
80 | KMNPKLKTLLAIGGWNFSTQKFTD [CHIT1] | 2.37 ± 0.11 | 2.3 ± 0.39 |  | 
81 | PDGLRSGDGVPPRSLQDGTREGFG [LCOR] | 4.95 ± 0.11 | 5.15 ± 0.16 |  | 
82 | KTKYILLMDIVPADDHRYKFADNK [TBX5] | 2.08 ± 0.22 | 2.3 ± 0.42 |  | 
83 | QSDVGVAVFENKIYVVGGYSWNNR [KLHL13] | 2.19 ± 0.34 | 2.26 ± 0.12 |  | 
84 | RSHHLEMVIQLLAIMCVSCICWSP [PTGFR] | 3.18 ± 0.26 | 3.14 ± 0.69 |  | 
85 | AARISNKGKFSTDTKGKPTSRTQV [ZC2HC1A] | 3.91 ± 0.38 | 4.19 ± 0.39 |  | 
86 | RPVILDPADPTGNLGGGDPKGWRQ [OAS1] | 4.28 ± 0.18 | 4.47 ± 0.18 |  | 
87 | ETSVFDQFGIKDVFDNAIRAALIS [RHOBTB1] | 2.3 ± 0.22 | 2.18 ± 0.33 |  | 
88 | DAEGLAARDVQKIIGDYFSDQDPR [INTS4] | 4.95 ± 0.15 | 4.86 ± 0.32 |  | 
89 | GRGLKSHAYIHSVQFSHHVFLNLH [USP39] | 2.84 ± 0.45 | 2.62 ± 0.65 |  | 
